# Results: the supplement of paper PMC10065799, “High-throughput profiling of sequence recognition by tyrosine kinases and SH2 domains using bacterial peptide display” (eLife, 2023)
# Biological target: Hck (UniProt P08631)
# Experiment: phosphorylation enrichment, bacterial display (enrichment ratio); higher = better substrate or ligand; peptides without Tyr show the background
# 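Further: 11-residue human phosphosite peptides and single-mutation variants displayed on the E. coli surface, counted by deep sequencing, each peptide's frequency after selection divided by its frequency in the unselected input library; frequency after pTyr selection over input frequency; kinase dosed for 20-30% of maximal phosphorylation in three min.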
# Hck, sequence (P08631 whole entry, looked up): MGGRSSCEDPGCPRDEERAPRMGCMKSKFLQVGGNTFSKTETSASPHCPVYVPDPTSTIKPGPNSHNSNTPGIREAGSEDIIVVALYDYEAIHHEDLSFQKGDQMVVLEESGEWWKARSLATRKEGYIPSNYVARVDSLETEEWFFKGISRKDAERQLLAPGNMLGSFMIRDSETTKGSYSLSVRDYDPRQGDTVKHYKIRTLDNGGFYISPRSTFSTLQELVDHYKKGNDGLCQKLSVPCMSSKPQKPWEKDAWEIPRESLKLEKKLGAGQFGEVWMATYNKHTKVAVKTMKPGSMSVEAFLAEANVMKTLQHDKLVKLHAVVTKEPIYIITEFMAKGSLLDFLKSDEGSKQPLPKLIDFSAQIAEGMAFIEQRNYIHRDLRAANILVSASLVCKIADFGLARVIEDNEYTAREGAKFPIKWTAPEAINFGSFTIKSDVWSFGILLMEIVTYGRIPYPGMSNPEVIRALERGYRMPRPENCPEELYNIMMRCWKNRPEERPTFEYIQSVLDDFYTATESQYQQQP
row,Sequence,phosphorylation enrichment
1,DEEDFYQGSME [ASCC1_Y36],0.654
2,HRGHLYLAIEF [TEK_Y899_Y897H_YF],1.5
3,EEQKRYFNAMK [SCN5A_Y1494_K1493R_YF],0.451
4,EEGESHVCSSD [DCX_Y125_Y125H],0.497
5,DFPGNYSGFDD [POLR1C_Y33_YF],0.481
6,KPSLKYVTYGN [GALNTL5_Y404_G401S],0.462
7,KYRREYILSLE [GPC3_Y299_W296R],0.49
8,IETGRYEILTE,0.487
9,KELAPYDENCF [RPS19_Y48_W52C],0.57
10,YENGEYIVRQG [PRKG1_Y247_I249V],0.495
11,AAFNRYDQERF [CDC73_Y293_YF],0.397
12,RFLRGYEQDAY [HLA-A_Y137_R138E],0.42
13,KPGVNYYFRVS,0.423
14,RISGVYKLPPD [ANGPTL7_Y145],0.572
15,KHCEDYVCSYN [DSC1_Y846],0.555
16,MAQDIYRASFF [ALK_Y1278_R1275Q_YF],2.06
17,GHMYAYDWISI [BEST1_Y227_L224M],2.87

row,Sequence,phosphorylation enrichment
1,PECEWYKNGVK [TTN_Y2112],0.73
2,SNYRAYATEPH [TNNI3_Y29],0.382
3,VPDTNYTSDEE [STK33_Y439_A437T],0.552
4,KKRSVYLKVLF [CC2D2A_Y683],0.401
5,KMGNEYVTKGQ [MYH7_Y410_V406M],0.451
6,QLCVSYPGGYT [PROS1_Y259_N258S],0.416
7,QKINKYLTVPA [SLC9A1_Y683_N682K],0.356
8,SLALFYRNVYH [RBL1_Y792_K794N],0.524
9,EVQKDYEHLFK [PAM16_Y77_N76D],0.514
10,CNNFIYGGCRG [SPINT2_Y163],3.35
11,SRVTQYERDFE [SNX1_Y463],0.476
12,HQEPVCSVAFS [TBL1X_Y509_Y509C],0.69
13,GRPMDYQVSIT [OTOF_Y254],0.417
14,FQEPVYSVAFS [TBL1X_Y509_H504Y_YF],10.2
15,LNLKEYNLVGG [GNAQ_Y356],0.485
16,NQDRTYFESVR [SPEN_Y632_YF],0.573

# Biological target: Jak2 (UniProt O60674)
# Experiment: as above
# Jak2, sequence (O60674 whole entry, looked up): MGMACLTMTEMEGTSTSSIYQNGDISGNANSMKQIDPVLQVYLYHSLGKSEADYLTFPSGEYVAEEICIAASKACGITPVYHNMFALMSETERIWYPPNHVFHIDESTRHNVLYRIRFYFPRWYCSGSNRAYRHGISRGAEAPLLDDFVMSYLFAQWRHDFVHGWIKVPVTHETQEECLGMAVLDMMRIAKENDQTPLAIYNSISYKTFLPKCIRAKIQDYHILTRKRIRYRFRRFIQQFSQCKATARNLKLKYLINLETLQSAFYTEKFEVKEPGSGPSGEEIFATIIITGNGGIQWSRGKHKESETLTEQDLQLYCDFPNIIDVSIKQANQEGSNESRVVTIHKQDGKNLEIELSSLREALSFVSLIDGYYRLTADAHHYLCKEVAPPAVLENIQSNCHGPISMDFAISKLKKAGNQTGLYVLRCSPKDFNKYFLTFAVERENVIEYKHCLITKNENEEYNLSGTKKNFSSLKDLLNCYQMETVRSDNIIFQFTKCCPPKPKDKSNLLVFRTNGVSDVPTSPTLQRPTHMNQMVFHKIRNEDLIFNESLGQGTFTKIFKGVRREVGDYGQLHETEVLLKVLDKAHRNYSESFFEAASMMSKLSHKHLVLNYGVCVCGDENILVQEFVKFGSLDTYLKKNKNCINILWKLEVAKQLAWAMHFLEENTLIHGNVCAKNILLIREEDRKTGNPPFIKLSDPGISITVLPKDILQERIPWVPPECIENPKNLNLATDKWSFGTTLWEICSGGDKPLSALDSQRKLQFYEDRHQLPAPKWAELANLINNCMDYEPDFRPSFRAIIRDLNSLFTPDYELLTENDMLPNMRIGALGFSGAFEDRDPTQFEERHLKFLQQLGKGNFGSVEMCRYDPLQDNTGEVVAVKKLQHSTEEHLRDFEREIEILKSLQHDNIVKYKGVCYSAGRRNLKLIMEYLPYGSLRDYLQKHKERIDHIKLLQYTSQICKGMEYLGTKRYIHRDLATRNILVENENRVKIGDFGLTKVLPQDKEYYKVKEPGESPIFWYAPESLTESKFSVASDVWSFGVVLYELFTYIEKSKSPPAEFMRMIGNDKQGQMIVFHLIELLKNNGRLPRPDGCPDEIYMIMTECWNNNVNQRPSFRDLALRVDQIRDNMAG
row,Sequence,phosphorylation enrichment
1,DEEDFYQGSME [ASCC1_Y36],1.54
2,HRGHLYLAIEF [TEK_Y899_Y897H_YF],6.33
3,EEQKRYFNAMK [SCN5A_Y1494_K1493R_YF],0.673
4,EEGESHVCSSD [DCX_Y125_Y125H],0.945
5,DFPGNYSGFDD [POLR1C_Y33_YF],0.676
6,KPSLKYVTYGN [GALNTL5_Y404_G401S],0.443
7,KYRREYILSLE [GPC3_Y299_W296R],0.628
8,IETGRYEILTE,0.951
9,KELAPYDENCF [RPS19_Y48_W52C],1.31
10,YENGEYIVRQG [PRKG1_Y247_I249V],0.784
11,AAFNRYDQERF [CDC73_Y293_YF],0.609
12,RFLRGYEQDAY [HLA-A_Y137_R138E],0.807
13,KPGVNYYFRVS,1.16
14,RISGVYKLPPD [ANGPTL7_Y145],0.785
15,KHCEDYVCSYN [DSC1_Y846],0.93
16,MAQDIYRASFF [ALK_Y1278_R1275Q_YF],0.711
17,GHMYAYDWISI [BEST1_Y227_L224M],0.798

row,Sequence,phosphorylation enrichment
1,PECEWYKNGVK [TTN_Y2112],1.32
2,SNYRAYATEPH [TNNI3_Y29],0.435
3,VPDTNYTSDEE [STK33_Y439_A437T],1.07
4,KKRSVYLKVLF [CC2D2A_Y683],0.897
5,KMGNEYVTKGQ [MYH7_Y410_V406M],0.418
6,QLCVSYPGGYT [PROS1_Y259_N258S],0.862
7,QKINKYLTVPA [SLC9A1_Y683_N682K],0.588
8,SLALFYRNVYH [RBL1_Y792_K794N],0.869
9,EVQKDYEHLFK [PAM16_Y77_N76D],0.71
10,CNNFIYGGCRG [SPINT2_Y163],0.591
11,SRVTQYERDFE [SNX1_Y463],0.635
12,HQEPVCSVAFS [TBL1X_Y509_Y509C],1.17
13,GRPMDYQVSIT [OTOF_Y254],0.727
14,FQEPVYSVAFS [TBL1X_Y509_H504Y_YF],0.925
15,LNLKEYNLVGG [GNAQ_Y356],0.793
16,NQDRTYFESVR [SPEN_Y632_YF],0.865

# Biological target: EPHB2 (UniProt P29323)
# Experiment: as above
# EPHB2, sequence (P29323 whole entry, looked up): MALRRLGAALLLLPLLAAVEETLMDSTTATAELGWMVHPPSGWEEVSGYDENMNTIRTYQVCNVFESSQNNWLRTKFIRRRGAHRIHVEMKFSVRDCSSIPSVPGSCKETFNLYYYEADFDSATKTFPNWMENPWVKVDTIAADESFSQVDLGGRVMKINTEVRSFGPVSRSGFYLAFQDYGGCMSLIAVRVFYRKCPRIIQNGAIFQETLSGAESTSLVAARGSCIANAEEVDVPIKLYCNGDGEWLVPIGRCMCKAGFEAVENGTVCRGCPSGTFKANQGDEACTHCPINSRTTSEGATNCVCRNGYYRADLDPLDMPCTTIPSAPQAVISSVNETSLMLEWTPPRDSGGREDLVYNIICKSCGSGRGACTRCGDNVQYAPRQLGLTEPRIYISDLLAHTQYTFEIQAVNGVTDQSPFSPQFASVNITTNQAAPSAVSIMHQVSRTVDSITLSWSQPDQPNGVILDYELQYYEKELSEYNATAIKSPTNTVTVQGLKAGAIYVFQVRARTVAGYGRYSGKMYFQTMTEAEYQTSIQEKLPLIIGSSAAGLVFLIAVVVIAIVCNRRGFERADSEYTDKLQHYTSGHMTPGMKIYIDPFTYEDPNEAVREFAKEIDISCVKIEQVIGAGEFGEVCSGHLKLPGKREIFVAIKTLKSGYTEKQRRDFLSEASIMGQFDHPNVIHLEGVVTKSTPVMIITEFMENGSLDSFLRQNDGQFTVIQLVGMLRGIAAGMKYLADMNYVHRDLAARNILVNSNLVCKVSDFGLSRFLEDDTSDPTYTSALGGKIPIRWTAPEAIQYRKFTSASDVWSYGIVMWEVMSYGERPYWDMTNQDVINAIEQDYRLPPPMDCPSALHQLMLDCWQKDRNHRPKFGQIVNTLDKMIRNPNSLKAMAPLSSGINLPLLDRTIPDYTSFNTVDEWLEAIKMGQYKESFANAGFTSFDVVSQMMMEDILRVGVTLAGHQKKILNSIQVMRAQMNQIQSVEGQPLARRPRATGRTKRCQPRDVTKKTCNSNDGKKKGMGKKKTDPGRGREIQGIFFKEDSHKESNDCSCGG
row,Sequence,phosphorylation enrichment
1,DEEDFYQGSME [ASCC1_Y36],0.595
2,HRGHLYLAIEF [TEK_Y899_Y897H_YF],1.67
3,EEQKRYFNAMK [SCN5A_Y1494_K1493R_YF],0.445
4,EEGESHVCSSD [DCX_Y125_Y125H],0.545
5,DFPGNYSGFDD [POLR1C_Y33_YF],0.531
6,KPSLKYVTYGN [GALNTL5_Y404_G401S],0.349
7,KYRREYILSLE [GPC3_Y299_W296R],0.465
8,IETGRYEILTE,0.762
9,KELAPYDENCF [RPS19_Y48_W52C],0.696
10,YENGEYIVRQG [PRKG1_Y247_I249V],0.464
11,AAFNRYDQERF [CDC73_Y293_YF],0.473
12,RFLRGYEQDAY [HLA-A_Y137_R138E],0.448
13,KPGVNYYFRVS,0.739
14,RISGVYKLPPD [ANGPTL7_Y145],0.586
15,KHCEDYVCSYN [DSC1_Y846],0.578
16,MAQDIYRASFF [ALK_Y1278_R1275Q_YF],0.499
17,GHMYAYDWISI [BEST1_Y227_L224M],2.54

row,Sequence,phosphorylation enrichment
1,PECEWYKNGVK [TTN_Y2112],1.05
2,SNYRAYATEPH [TNNI3_Y29],0.452
3,VPDTNYTSDEE [STK33_Y439_A437T],0.658
4,KKRSVYLKVLF [CC2D2A_Y683],0.543
5,KMGNEYVTKGQ [MYH7_Y410_V406M],0.353
6,QLCVSYPGGYT [PROS1_Y259_N258S],0.719
7,QKINKYLTVPA [SLC9A1_Y683_N682K],0.67
8,SLALFYRNVYH [RBL1_Y792_K794N],0.433
9,EVQKDYEHLFK [PAM16_Y77_N76D],0.525
10,CNNFIYGGCRG [SPINT2_Y163],0.404
11,SRVTQYERDFE [SNX1_Y463],0.486
12,HQEPVCSVAFS [TBL1X_Y509_Y509C],0.654
13,GRPMDYQVSIT [OTOF_Y254],0.624
14,FQEPVYSVAFS [TBL1X_Y509_H504Y_YF],24.6
15,LNLKEYNLVGG [GNAQ_Y356],0.411
16,NQDRTYFESVR [SPEN_Y632_YF],0.617

# Biological target: Fes (UniProt P07332)
# Experiment: as above
# Fes, sequence (P07332 whole entry, looked up): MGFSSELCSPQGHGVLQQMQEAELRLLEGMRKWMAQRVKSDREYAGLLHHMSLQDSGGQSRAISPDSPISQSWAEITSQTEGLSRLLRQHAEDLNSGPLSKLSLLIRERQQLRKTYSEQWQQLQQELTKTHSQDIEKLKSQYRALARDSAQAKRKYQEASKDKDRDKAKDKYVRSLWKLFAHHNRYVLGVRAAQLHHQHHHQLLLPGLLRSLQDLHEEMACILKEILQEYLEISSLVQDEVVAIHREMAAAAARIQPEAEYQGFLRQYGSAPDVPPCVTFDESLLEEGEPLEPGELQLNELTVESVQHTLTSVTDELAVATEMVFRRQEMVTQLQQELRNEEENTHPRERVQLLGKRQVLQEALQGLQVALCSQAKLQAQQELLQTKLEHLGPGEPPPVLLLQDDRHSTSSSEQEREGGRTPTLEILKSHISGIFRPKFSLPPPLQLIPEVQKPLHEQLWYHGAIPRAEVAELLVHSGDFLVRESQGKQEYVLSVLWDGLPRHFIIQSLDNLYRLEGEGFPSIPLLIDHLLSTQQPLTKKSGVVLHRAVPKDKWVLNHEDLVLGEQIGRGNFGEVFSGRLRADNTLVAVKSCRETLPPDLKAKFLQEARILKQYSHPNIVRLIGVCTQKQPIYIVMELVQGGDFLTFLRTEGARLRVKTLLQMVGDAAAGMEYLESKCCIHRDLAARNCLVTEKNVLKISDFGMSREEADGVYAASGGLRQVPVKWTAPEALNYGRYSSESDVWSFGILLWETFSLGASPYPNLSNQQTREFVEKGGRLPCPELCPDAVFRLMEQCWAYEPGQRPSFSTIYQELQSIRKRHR
row,Sequence,phosphorylation enrichment
1,DEEDFYQGSME [ASCC1_Y36],1.54
2,HRGHLYLAIEF [TEK_Y899_Y897H_YF],8.12
3,EEQKRYFNAMK [SCN5A_Y1494_K1493R_YF],0.645
4,EEGESHVCSSD [DCX_Y125_Y125H],1.07
5,DFPGNYSGFDD [POLR1C_Y33_YF],0.899
6,KPSLKYVTYGN [GALNTL5_Y404_G401S],0.65
7,KYRREYILSLE [GPC3_Y299_W296R],0.698
8,IETGRYEILTE,1
9,KELAPYDENCF [RPS19_Y48_W52C],1.48
10,YENGEYIVRQG [PRKG1_Y247_I249V],0.937
11,AAFNRYDQERF [CDC73_Y293_YF],0.856
12,RFLRGYEQDAY [HLA-A_Y137_R138E],0.969
13,KPGVNYYFRVS,1.37
14,RISGVYKLPPD [ANGPTL7_Y145],0.852
15,KHCEDYVCSYN [DSC1_Y846],1.23
16,MAQDIYRASFF [ALK_Y1278_R1275Q_YF],0.69
17,GHMYAYDWISI [BEST1_Y227_L224M],4.88

row,Sequence,phosphorylation enrichment
1,PECEWYKNGVK [TTN_Y2112],1.96
2,SNYRAYATEPH [TNNI3_Y29],0.475
3,VPDTNYTSDEE [STK33_Y439_A437T],1.19
4,KKRSVYLKVLF [CC2D2A_Y683],1.19
5,KMGNEYVTKGQ [MYH7_Y410_V406M],0.523
6,QLCVSYPGGYT [PROS1_Y259_N258S],0.888
7,QKINKYLTVPA [SLC9A1_Y683_N682K],0.625
8,SLALFYRNVYH [RBL1_Y792_K794N],1.25
9,EVQKDYEHLFK [PAM16_Y77_N76D],0.804
10,CNNFIYGGCRG [SPINT2_Y163],0.699
11,SRVTQYERDFE [SNX1_Y463],0.954
12,HQEPVCSVAFS [TBL1X_Y509_Y509C],2.01
13,GRPMDYQVSIT [OTOF_Y254],0.775
14,FQEPVYSVAFS [TBL1X_Y509_H504Y_YF],3.7
15,LNLKEYNLVGG [GNAQ_Y356],0.867
16,NQDRTYFESVR [SPEN_Y632_YF],0.931
